This note sets out measurements from the supplement of paper PMC7125110.

The term kcat denotes the number of substrate molecules converted per active site and unit of time at saturation. For orientation: KM means the substrate concentration at which the rate is half of its maximum.

B1: glmS ribozyme (parent)
chain: AUAAAAGCGCCAGAACUACAGAAAUGUAGUUGACGAGGAGGAGGUUUAUCGAAUUUUCGGCGGAUGCCUCCAAA

What all share (details): with glucosamine-6-phosphate
The variants in series [1] derive from B1. Kind of series: kcat; higher = faster cleavage; RNA array. Summed up:
(§1)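 Tiles of sequenced MiSeq chips were imaged over ~14 h at 37 °C. On them, barcoded ribozyme variants had been transcribed in situ by E. coli RNA polymerase and were tracked via a hybridised Cy3 probe while glucosamine-6-phosphate (40 μM to 10 mM) in HEPES/KCl/Mg(OAc)2 buffer flowed in. Per-tile medians, normalised to baseline and to non-cleaving reference variants, were fit to one- or two-exponential decays for kobs, and weighted Michaelis–Menten fits gave kcat and KM.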

The variants in series [2] derive from B1. The series can be described thus: KM; higher = weaker cofactor use; RNA array. An outline of the steps:
as §1

In series [3] the parent is B1. The series can be described thus: self-cleavage kobs at 160 uM GlcN6P; higher = faster cleavage; RNA array. An outline of the steps:
as §1

Series [4] covers variants of B1. Kind of series: self-cleavage kobs at 640 uM GlcN6P; higher = faster cleavage; RNA array. An outline of the steps: as §1
The variants in series [5] derive from B1. The series can be described thus: self-cleavage kobs at 2500 uM GlcN6P; higher = faster cleavage; RNA array. Summed up: as §1
Variants of B1 are the subject of series [6]. Kind of series: self-cleavage kobs at 10000 uM GlcN6P; higher = faster cleavage; RNA array. Summed up:
as §1

In series [7] the parent is B1. Kind of series: self-cleavage kobs at 40 uM GlcN6P; higher = faster cleavage; RNA array. Summed up: as §1

± gives the standard error. For some assays here: Fewer inactive variants are shown than the library holds.

Take A53C U65A: the kcat in series [1] was determined as 0.000359 ± 3.3e-05 s⁻¹. Further, in series [2], the KM is 1720 ± 320 µM. In addition, the “self-cleavage kobs at 160 uM GlcN6P” value in series [3] was 3.15e-05 ± 1e-05 s⁻¹. For the same variant, in series [4], the “self-cleavage kobs at 640 uM GlcN6P” value came out at 9.23e-05 ± 1.4e-05 s⁻¹. Moreover, the “self-cleavage kobs at 2500 uM GlcN6P” value in series [5] was 0.00025 ± 3.8e-05 s⁻¹. Also, in series [6], the “self-cleavage kobs at 10000 uM GlcN6P” value is 0.000294 ± 3.7e-05 s⁻¹.
As to A15G U65C U69A, in series [7], the “self-cleavage kobs at 40 uM GlcN6P” value is less than 1e-05 s⁻¹.
A6G C71G: the “self-cleavage kobs at 40 uM GlcN6P” value in series [7] is less than 1e-05 s⁻¹. Further, in series [3], the “self-cleavage kobs at 160 uM GlcN6P” value was less than 1e-05 s⁻¹. The “self-cleavage kobs at 640 uM GlcN6P” value in series [4] is less than 1e-05 s⁻¹. Further, the “self-cleavage kobs at 2500 uM GlcN6P” value in series [5] is less than 1e-05 s⁻¹.
Consider A15C U54C, for which the kcat in series [1] is 0.00621 ± 0.0013 s⁻¹. Moreover, the KM in series [2] turned out to be 1740 ± 510 µM. In addition, the “self-cleavage kobs at 40 uM GlcN6P” value in series [7] was 0.000176 ± 2.3e-05 s⁻¹. For the same variant, the “self-cleavage kobs at 160 uM GlcN6P” value in series [3] is 0.000481 ± 8.7e-05 s⁻¹. Moreover, in series [4], the “self-cleavage kobs at 640 uM GlcN6P” value was determined as 0.00131 ± 0.00024 s⁻¹. In addition, the “self-cleavage kobs at 2500 uM GlcN6P” value in series [5] was found to be 0.00384 ± 0.00078 s⁻¹. In addition, the “self-cleavage kobs at 10000 uM GlcN6P” value in series [6] is 0.00556 ± 0.00077 s⁻¹.
With G32A U54A, the kcat in series [1] turned out to be 0.00386 ± 0.001 s⁻¹. For the same variant, the Michaelis-Menten constant (KM) in series [2] came to 3520 ± 1300 µM. Also, the “self-cleavage kobs at 40 uM GlcN6P” value in series [7] was found to be 6.3e-05 ± 1.3e-05 s⁻¹. Also, the “self-cleavage kobs at 160 uM GlcN6P” value in series [3] is 0.000125 ± 2.9e-05 s⁻¹. Besides, in series [4], the “self-cleavage kobs at 640 uM GlcN6P” value was 0.00067 ± 0.00011 s⁻¹. Also, in series [5], the “self-cleavage kobs at 2500 uM GlcN6P” value amounted to 0.00157 ± 0.00026 s⁻¹. For the same variant, in series [6], the “self-cleavage kobs at 10000 uM GlcN6P” value is 0.00286 ± 0.00045 s⁻¹.
As for C10A A42C, the kcat in series [1] is less than 1e-05 s⁻¹. Moreover, the Michaelis-Menten constant (KM) in series [2] came out at 2410 ± 820 µM. The “self-cleavage kobs at 40 uM GlcN6P” value in series [7] is less than 1e-05 s⁻¹. For the same variant, the “self-cleavage kobs at 160 uM GlcN6P” value in series [3] is less than 1e-05 s⁻¹. For the same variant, the “self-cleavage kobs at 640 uM GlcN6P” value in series [4] is less than 1e-05 s⁻¹.
Regarding A39G G41U, the kcat in series [1] worked out at 0.0014 ± 8.3e-05 s⁻¹. Further, in series [2], the KM is 1410 ± 140 µM. Also, the “self-cleavage kobs at 40 uM GlcN6P” value in series [7] turned out to be 3.41e-05 ± 9.8e-06 s⁻¹. For the same variant, the “self-cleavage kobs at 160 uM GlcN6P” value in series [3] was 0.000143 ± 2.9e-05 s⁻¹. Also, the “self-cleavage kobs at 640 uM GlcN6P” value in series [4] was determined as 0.000467 ± 8.1e-05 s⁻¹. Besides, in series [5], the “self-cleavage kobs at 2500 uM GlcN6P” value stood at 0.000965 ± 0.00021 s⁻¹. For the same variant, the “self-cleavage kobs at 10000 uM GlcN6P” value in series [6] is 0.00119 ± 0.00016 s⁻¹.
As to A14G A33C C70U, the “self-cleavage kobs at 40 uM GlcN6P” value in series [7] is less than 1e-05 s⁻¹. Moreover, the “self-cleavage kobs at 160 uM GlcN6P” value in series [3] is less than 1e-05 s⁻¹. Further, in series [4], the “self-cleavage kobs at 640 uM GlcN6P” value was less than 1e-05 s⁻¹. For the same variant, the “self-cleavage kobs at 2500 uM GlcN6P” value in series [5] was less than 1e-05 s⁻¹. Moreover, the “self-cleavage kobs at 10000 uM GlcN6P” value in series [6] was less than 1e-05 s⁻¹.
On to A48C U56C, for which, in series [1], the kcat worked out at 5.47e-05 ± 1.8e-06 s⁻¹. Besides, the KM in series [2] turned out to be 357 ± 160 µM. In addition, in series [4], the “self-cleavage kobs at 640 uM GlcN6P” value was less than 1e-05 s⁻¹. Also, the “self-cleavage kobs at 2500 uM GlcN6P” value in series [5] was determined as 4.83e-05 ± 1.6e-05 s⁻¹. Also, the “self-cleavage kobs at 10000 uM GlcN6P” value in series [6] turned out to be 5.27e-05 ± 1.2e-05 s⁻¹.
G29A G38A U46G C61U: the “self-cleavage kobs at 40 uM GlcN6P” value in series [7] is less than 1e-05 s⁻¹. The “self-cleavage kobs at 10000 uM GlcN6P” value in series [6] is less than 1e-05 s⁻¹.
For the variant U46A U47A, the kcat in series [1] is 0.00774 ± 0.0022 s⁻¹. In addition, the KM in series [2] amounted to 2510 ± 920 µM. Besides, the “self-cleavage kobs at 40 uM GlcN6P” value in series [7] came to 0.000207 ± 4.9e-05 s⁻¹. The “self-cleavage kobs at 160 uM GlcN6P” value in series [3] amounted to 0.000426 ± 6.1e-05 s⁻¹. Also, the “self-cleavage kobs at 640 uM GlcN6P” value in series [4] stood at 0.00159 ± 0.00033 s⁻¹. Besides, the “self-cleavage kobs at 2500 uM GlcN6P” value in series [5] was 0.00385 ± 0.00067 s⁻¹. The “self-cleavage kobs at 10000 uM GlcN6P” value in series [6] came out at 0.00631 ± 0.0017 s⁻¹.
For the variant A6G A12U C61U, in series [7], the “self-cleavage kobs at 40 uM GlcN6P” value was less than 1e-05 s⁻¹. Further, in series [6], the “self-cleavage kobs at 10000 uM GlcN6P” value is less than 1e-05 s⁻¹.
Regarding C11A G32A, in series [1], the kcat was found to be 1.09e-05 ± 7.8e-07 s⁻¹.
Consider A6C U55A, for which the kcat in series [1] was 9.15e-05 ± 2.5e-05 s⁻¹. The “self-cleavage kobs at 2500 uM GlcN6P” value in series [5] was 7.01e-05 ± 1.6e-05 s⁻¹. The “self-cleavage kobs at 10000 uM GlcN6P” value in series [6] worked out at 7.27e-05 ± 1.2e-05 s⁻¹.
As for G29A C70U, the “self-cleavage kobs at 40 uM GlcN6P” value in series [7] came out at 0.000121 ± 1.3e-05 s⁻¹. Besides, the “self-cleavage kobs at 160 uM GlcN6P” value in series [3] was 0.000201 ± 2.9e-05 s⁻¹. In addition, the “self-cleavage kobs at 640 uM GlcN6P” value in series [4] was found to be 0.000483 ± 6e-05 s⁻¹. The “self-cleavage kobs at 10000 uM GlcN6P” value in series [6] is 0.0021 ± 0.0006 s⁻¹.
For A6G C10U G43C, the “self-cleavage kobs at 40 uM GlcN6P” value in series [7] is less than 1e-05 s⁻¹. Also, the “self-cleavage kobs at 640 uM GlcN6P” value in series [4] was less than 1e-05 s⁻¹.
In the case of G13A A48U, in series [7], the “self-cleavage kobs at 40 uM GlcN6P” value was less than 1e-05 s⁻¹. Moreover, in series [3], the “self-cleavage kobs at 160 uM GlcN6P” value is less than 1e-05 s⁻¹. The “self-cleavage kobs at 640 uM GlcN6P” value in series [4] is less than 1e-05 s⁻¹.
